The test system of data set [1] is Nc1ncnc2c1ncn2[C@@H]1O[C@H](COP(=O)(O)O[C@H]2[C@@H](O)[C@H](n3cnc4c(N)ncnc43)O[C@@H]2COP(=O)(O)O)[C@@H](O)[C@H]1O. Description: purified protein. The conditions noted are these: 50 mM Tris-HCl pH 7.5, 2 mM MnCl2, 0.1 mg/mL BSA, 37 °C.
The test system of data set [2] is O=c1ccn([C@@H]2O[C@H](CO)[C@@H](OP(=O)(O)O)[C@H]2O)c(=O)[nH]1. Description: purified protein. The conditions noted are these: 50 mM Tris-HCl pH 7.5, 2 mM MnCl2, 0.1 mg/mL BSA, 37 °C.
Description: (§1) colorimetric phosphate release, initial rates, Michaelis-Menten fit on S. enterica CpdB
For data set [3], the system named is [H][C@@]1(O)[C@]2([H])OP(=O)(O)OC[C@@]3([H])O[C@@]([H])(n4cnc5c(N)ncnc54)[C@]([H])(O)[C@]3([H])OP(=O)(O)OC[C@@]2([H])O[C@@]1([H])n1cnc2c(N)ncnc21. Description: purified protein. The conditions noted are these: 50 mM Tris-HCl pH 7.5, 2 mM MnCl2, 0.1 mg/mL BSA, 37 °C.
Data set [4] deals with Nc1ncnc2c1ncn2[C@@H]1O[C@H](CO)[C@@H](OP(=O)(O)O)[C@H]1O. Description: purified protein. The conditions noted are these: 50 mM Tris-HCl pH 7.5, 2 mM MnCl2, 0.1 mg/mL BSA, 37 °C.
Description: as §1
Data set [5] relates to O=[N+]([O-])c1ccc(OP(=O)(O)Oc2ccc([N+](=O)[O-])cc2)cc1. As to the kind of experiment: purified protein. Particulars: 50 mM Tris-HCl pH 7.5, 2 mM MnCl2, 0.1 mg/mL BSA, 37 °C, excess alkaline phosphatase.
Description: (§2) coupled alkaline phosphatase, colorimetric phosphate release, initial rates, Michaelis-Menten fit on S. enterica CpdB
Data set [6] relates to Nc1nc2c(ncn2[C@@H]2O[C@H](CO)[C@H]3OP(=O)(O)O[C@H]32)c(=O)[nH]1. Description: purified protein. The conditions noted are these: 50 mM Tris-HCl pH 7.5, 2 mM MnCl2, 0.1 mg/mL BSA, 37 °C, excess alkaline phosphatase.
Description: as §2
Data set [7] concerns Nc1nc2c(ncn2[C@@H]2O[C@@H]3CO[P@](=O)(O)O[C@H]4[C@@H](O)[C@H](n5cnc6c(=O)[nH]c(N)nc65)O[C@@H]4CO[P@](=O)(O)O[C@H]3[C@H]2O)c(=O)[nH]1. Description: purified protein. Particulars: 50 mM Tris-HCl pH 7.5, 2 mM MnCl2, 0.1 mg/mL BSA, 37 °C.
In data set [8] the test system is Nc1ncnc2c1ncn2[C@@H]1O[C@@H]2COP(=O)(O)O[C@H]3[C@@H](O)[C@H](n4cnc5c(N)ncnc54)O[C@@H]3COP(=O)(O)O[C@H]3[C@@H](O)[C@H](n4cnc5c(N)ncnc54)O[C@@H]3COP(=O)(O)O[C@H]3[C@@H](O)[C@H](n4cnc5c(N)ncnc54)O[C@@H]3COP(=O)(O)O[C@H]3[C@@H](O)[C@H](n4cnc5c(N)ncnc54)O[C@@H]3COP(=O)(O)O[C@H]3[C@@H](O)[C@H](n4cnc5c(N)ncnc54)O[C@@H]3COP(=O)(O)O[C@H]2[C@H]1O. Description: purified protein. The conditions noted are these: 50 mM Tris-HCl pH 7.5, 2 mM MnCl2, 0.1 mg/mL BSA, 37 °C.

Data set [9] concerns Nc1ncnc2c1ncn2[C@@H]1O[C@H](CO)[C@H]2OP(=O)(O)O[C@H]21. As to the kind of experiment: purified protein. The conditions noted are these: 50 mM Tris-HCl pH 7.5, 2 mM MnCl2, 0.1 mg/mL BSA, 37 °C, excess alkaline phosphatase.
Description: as §2
For data set [10], the system named is Nc1ncnc2c1ncn2[C@@H]1O[C@H](COP(=O)(O)OP(=O)(O)OP(=O)(O)OP(=O)(O)OC[C@H]2O[C@@H](n3cnc4c(N)ncnc43)[C@H](O)[C@@H]2O)[C@@H](O)[C@H]1O. As to the kind of experiment: purified protein. The conditions noted are these: 50 mM Tris-HCl pH 7.5, 2 mM MnCl2, 0.1 mg/mL BSA, 37 °C, excess alkaline phosphatase.
Description: as §2
The test system of data set [11] is Nc1nc2c(ncn2[C@@H]2O[C@@H]3COP(=O)(O)O[C@H]4[C@@H](O)[C@H](n5cnc6c(N)ncnc65)O[C@@H]4COP(=O)(O)O[C@H]3[C@H]2O)c(=O)[nH]1. Description: purified protein. The conditions noted are these: 50 mM Tris-HCl pH 7.5, 2 mM MnCl2, 0.1 mg/mL BSA, 37 °C.
Data set [12] deals with Nc1nc2c(ncn2[C@@H]2O[C@H](CO)[C@@H](OP(=O)(O)O)[C@H]2O)c(=O)[nH]1. As to the kind of experiment: purified protein. Particulars: 50 mM Tris-HCl pH 7.5, 2 mM MnCl2, 0.1 mg/mL BSA, 37 °C.
Description: as §1
The test system of data set [13] is Nc1ccn([C@@H]2O[C@H](CO)[C@H]3OP(=O)(O)O[C@H]32)c(=O)n1. As to the kind of experiment: purified protein. Particulars: 50 mM Tris-HCl pH 7.5, 2 mM MnCl2, 0.1 mg/mL BSA, 37 °C, excess alkaline phosphatase.
Description: as §2
For data set [14], the system named is O=c1ccn([C@@H]2O[C@H](CO)[C@H]3OP(=O)(O)O[C@H]32)c(=O)[nH]1. Description: purified protein. The conditions noted are these: 50 mM Tris-HCl pH 7.5, 2 mM MnCl2, 0.1 mg/mL BSA, 37 °C, excess alkaline phosphatase.
Description: as §2
Data set [15] concerns Nc1ncnc2c1ncn2[C@@H]1O[C@H](COP(=O)(O)OP(=O)(O)O)[C@@H](O)[C@H]1O. Description: purified protein. Particulars: 50 mM Tris-HCl pH 7.5, 2 mM MnCl2, 0.1 mg/mL BSA, 37 °C.
Description: as §1
Data set [16] deals with Nc1ncnc2c1ncn2[C@@H]1O[C@H](COP(=O)(O)OP(=O)(O)OP(=O)(O)OC[C@H]2O[C@@H](n3cnc4c(N)ncnc43)[C@H](O)[C@@H]2O)[C@@H](O)[C@H]1O. As to the kind of experiment: purified protein. Particulars: 50 mM Tris-HCl pH 7.5, 2 mM MnCl2, 0.1 mg/mL BSA, 37 °C, excess alkaline phosphatase.
Description: as §2
In data set [17] the test system is Nc1ncnc2c1ncn2[C@@H]1O[C@@H]2COP(=O)(O)O[C@H]3[C@@H](O)[C@H](n4cnc5c(N)ncnc54)O[C@@H]3COP(=O)(O)O[C@H]3[C@@H](O)[C@H](n4cnc5c(N)ncnc54)O[C@@H]3COP(=O)(O)O[C@H]3[C@@H](O)[C@H](n4cnc5c(N)ncnc54)O[C@@H]3COP(=O)(O)O[C@H]2[C@H]1O. Description: purified protein. Particulars: 50 mM Tris-HCl pH 7.5, 2 mM MnCl2, 0.1 mg/mL BSA, 37 °C.
A further data set concerns T1, SntA.
T1 construct: cell wall-attached protein of 813 residues; preparation from earlier work [10]
Description: HPLC at […] nm of […]'-AMP formed, initial rates, Michaelis-Menten fit. Particulars: 50 mM Tris-HCl pH 7.5, 2 mM MnCl2, 0.1 mg/mL BSA, 37 °C; read-out: K m ^1 /. It counts as biochemical, Streptococcus suis.

On to “S. enterica CpdB (Salmonella enterica subsp. enterica serovar Typhimurium str. LT2)”, for which the Km in [1] is listed as 0.22 ± 0.12 µM; in data set [2], 4.54 ± 0.53 µM; in data set [3], 8.89 ± 2.31 µM; in data set [4], 6.53 ± 1.16 µM; in [5], 33.74 ± 4.77 µM; in [6] it was 7.52 ± 1.46 µM. In addition, the Km in data set [7] is listed as 4.12 ± 0.98 µM; in data set [8] it was 24.24 ± 7.60 µM; in data set [9] it was 14.41 ± 3.68 µM; in data set [10], 49.21 ± 12.46 µM; in data set [11], 2.13 ± 0.32 µM; in [12], 4.66 ± 1.34 µM. The Km in [13] was 4.52 ± 0.69 µM; in [14] it was 22.65 ± 2.56 µM; in data set [15], 28.09 ± 1.82 µM; in data set [16], 69.09 ± 19.31 µM; in data set [17], 18.44 ± 4.95 µM. The kcat – broadly, the number of substrate molecules converted per active site and unit of time at saturation – was determined as 2.85 ± 1.04 s⁻¹ in data set [1]; 155 ± 13.3 s⁻¹ in [2]; 0.31 ± 0.06 s⁻¹ in [3]; 172 ± 41.3 s⁻¹ in data set [4]; 250 ± 9.82 s⁻¹ in data set [5]; 120 ± 4.74 s⁻¹ in data set [6]. Besides, the kcat in data set [7] worked out at 0.09 ± 0.01 s⁻¹; in data set [8] it was 0.006 ± 0.001 s⁻¹; in data set [9], 209 ± 16.9 s⁻¹; in data set [10], 2.64 ± 0.24 s⁻¹; in data set [11], 0.3 ± 0.03 s⁻¹; in data set [12], 219 ± 48.7 s⁻¹. The kcat in data set [13] turned out to be 146 ± 9.39 s⁻¹; in data set [14], 324 ± 21.8 s⁻¹; in data set [15], 2.83 ± 0.19 s⁻¹; in [16] it was 2.1 ± 0.17 s⁻¹; in data set [17] it was 0.042 ± 0.001 s⁻¹. Also, the catalytic efficiency (kcat/Km) (commonly the turnover number divided by the Michaelis constant) in data set [1] is 1.39e+07 M⁻¹ s⁻¹; in data set [2] it was 3.42e+07 M⁻¹ s⁻¹; in [3], 35500 M⁻¹ s⁻¹; in data set [4] it was 2.76e+07 M⁻¹ s⁻¹; in data set [5], 7.53e+06 M⁻¹ s⁻¹; in data set [6] it was 1.63e+07 M⁻¹ s⁻¹. Further, the kcat/Km in data set [7] was 22400 M⁻¹ s⁻¹; in data set [8] it was 238 M⁻¹ s⁻¹; in data set [9] it was 1.53e+07 M⁻¹ s⁻¹; in data set [10] it was 55000 M⁻¹ s⁻¹; in data set [11], 197000 M⁻¹ s⁻¹; in data set [12], 5.23e+07 M⁻¹ s⁻¹. The kcat/Km in data set [13] stood at 3.32e+07 M⁻¹ s⁻¹; in data set [14], 1.44e+07 M⁻¹ s⁻¹; in data set [15] it was 101000 M⁻¹ s⁻¹; in data set [16], 31600 M⁻¹ s⁻¹; in [17], 2370 M⁻¹ s⁻¹.
Take `Nc1ncnc2c1ncn2[C@@H]1O[C@@H]2COP(=O)(O)O[C@H]3[C@@H](O)[C@H](n4cnc5c(N)ncnc54)O[C@@H]3COP(=O)(O)O[C@H]3[C@@H](O)[C@H](n4cnc5c(N)ncnc54)O[C@@H]3COP(=O)(O)O[C@H]3[C@@H](O)[C@H](n4cnc5c(N)ncnc54)O[C@@H]3COP(=O)(O)O[C@H]3[C@@H](O)[C@H](n4cnc5c(N)ncnc54)O[C@@H]3COP(=O)(O)O[C@H]3[C@@H](O)[C@H](n4cnc5c(N)ncnc54)O[C@@H]3COP(=O)(O)O[C@H]2[C@H]1O` [c-hexa-AMP]: the Km with SntA amounted to 2.63 ± 0.88 µM.
The same measure, in the same setting: the result for `Nc1ncnc2c1ncn2[C@@H]1O[C@@H]2COP(=O)(O)O[C@H]3[C@@H](O)[C@H](n4cnc5c(N)ncnc54)O[C@@H]3COP(=O)(O)O[C@H]3[C@@H](O)[C@H](n4cnc5c(N)ncnc54)O[C@@H]3COP(=O)(O)O[C@H]3[C@@H](O)[C@H](n4cnc5c(N)ncnc54)O[C@@H]3COP(=O)(O)O[C@H]2[C@H]1O` [c-tetra-AMP] reads 262 ± 62.1 µM.

The values above are taken from publication PMC9958556, “Genomic Distribution of Pro-Virulent cpdB-like Genes in Eubacteria and Comparison of the Enzyme Specificity of CpdB-like Proteins from Salmonella enterica, Escherichia coli and Streptococcus suis” (International Journal of Molecular Sciences, 2023).
